Results reported in publication PMC2768832 (The Journal of Cell Biology, 2009).

Target: p97/VCP-His, recombinant full-length mouse p97/VCP (mouse, UniProt Q01853 1-806)
Assay: pull-down

p97/VCP-His, recombinant full-length mouse p97/VCP, sequence (Q01853 whole entry): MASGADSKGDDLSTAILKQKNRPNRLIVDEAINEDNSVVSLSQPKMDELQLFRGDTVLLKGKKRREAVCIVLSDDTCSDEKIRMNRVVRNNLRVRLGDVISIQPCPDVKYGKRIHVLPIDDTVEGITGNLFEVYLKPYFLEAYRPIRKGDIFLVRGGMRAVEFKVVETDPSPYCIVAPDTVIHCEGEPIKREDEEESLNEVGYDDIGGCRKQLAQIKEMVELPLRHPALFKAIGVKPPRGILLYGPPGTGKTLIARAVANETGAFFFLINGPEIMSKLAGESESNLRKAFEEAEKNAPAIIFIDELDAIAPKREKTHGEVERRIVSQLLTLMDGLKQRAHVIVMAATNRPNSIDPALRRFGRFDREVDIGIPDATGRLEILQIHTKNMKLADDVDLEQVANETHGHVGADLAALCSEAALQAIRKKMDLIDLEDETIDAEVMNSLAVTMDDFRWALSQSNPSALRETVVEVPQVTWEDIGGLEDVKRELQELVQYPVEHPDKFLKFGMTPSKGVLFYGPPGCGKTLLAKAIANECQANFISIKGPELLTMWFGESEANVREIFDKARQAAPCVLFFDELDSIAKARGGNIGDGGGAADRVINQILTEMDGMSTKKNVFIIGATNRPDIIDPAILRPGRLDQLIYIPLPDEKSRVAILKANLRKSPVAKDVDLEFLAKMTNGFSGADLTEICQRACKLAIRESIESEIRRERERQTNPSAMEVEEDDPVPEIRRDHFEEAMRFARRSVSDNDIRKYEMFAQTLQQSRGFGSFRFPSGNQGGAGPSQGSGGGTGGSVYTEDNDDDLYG

binding result: binds
B1: erasin-His, recombinant full-length human erasin (natural protein)
chain: MLWFQGAIPAAIATAKRSGAVFVVFVAGDDEQSTQMAASWEDDKVTEASSNSFVAIKIDTKSEACLQFSQIYPVVCVPSSFFIGDSGIPLEVIAGSVSADELVTRIHKVRQMHLLKSETSVANGSQSESSVSTPSASFEPNNTCENSQSRNAELCEIPPTSDTKSDTATGGESAGHATSSQEPSGCSDQRPAEDLNIRVERLTKKLEERREEKRKEEEQREIKKEIERRKTGKEMLDYKRKQEEELTKRMLEERNREKAEDRAARERIKQQIALDRAERAARFAKTKEEVEAAKAAALLAKQAEMEVKRESYARERSTVARIQFRLPDGSSFTNQFPSDAPLEEARQFAAQTVGNTYGNFSLATMFPRREFTKEDYKKKLLDLELAPSASVVLLPAGRPTASIVHSSSGDIWTLLGTVLYPFLAIWRLISNFLFSNPPPTQTSVRVTSSEPPNPASSSKSEKREPVRKRVLEKRGDDFKKEGKIYRLRTQDDGEDENNTWNGNSTQQM
